Several values for one entry are separate records, joined by “and”; a condition that tells them apart may be missing. Identical values can stand only once. Like-named read-outs stand apart in the source and are kept apart here. One block for each binder: values may come before it.
Assays:
[1] = target: T1, recombinant human IL4Rα-his protein (in house made) (human, UniProt P24394 26-232, limits assumed); experiment: competitive ELISA: antibody mixed with biotin human IL4Rα-his, competitor plate-coated Benchmark
T1 construct: also called Human IL4Ra-his

[2] = target: T1, recombinant human IL4Rα-his protein (in …); experiment: SPR (Biacore), antibody captured, IL4Rα-his flowed
[3] = target: T1, recombinant human IL4Rα-his protein (in …); experiment: SPR (Biacore), antibody captured, IL4Rα-his flowed; remark: listed apart in the source
[4] = target: T1, recombinant human IL4Rα-his protein (in …); experiment: competitive ELISA: coated human IL4Rα-his, blocked ligand biotin human IL4
[5] = target: T2, cynomolgus monkey IL4Rα-his protein (cynomolgus monkey, UniProt A0A2K5V580 33-239); experiment: indirect ELISA on coated cynomolgus IL4Rα-his
T2 construct: Bought protein; also called Cynomolgus IL4Rα; Cyno-IL4Rα-his; not shown: his tag

[6] = target: T1, recombinant human IL4Rα-his protein (in …); experiment: competitive ELISA: antibody mixed with biotin human IL4Rα-his, competitor plate-coated Benchmark; remark: listed apart in the source

IC50 [1]: 1.52 nM
Kd [2]: 3.68 nM and 2.69 nM
koff [2]: 0.00112 s⁻¹ and 0.00143 s⁻¹
kon [2]: 306000 M⁻¹ s⁻¹ and 529000 M⁻¹ s⁻¹
B1: chimeric antibody B8G11F2B7G5E8 (antibody, human IgG4 S228P, kappa, V domains shown)
VH: EVQLQQSGADLVRPGASVKLSCTASGFNIKDTYMHWVKQRPEQGLEWVGRIDPTNGYTIYASKFQGKATITADTSSNTAYMQLSSLTSGDTAVYHCVSRRPWFAYWGQGTLVTVSA
VL: DILMTQTPLSLPVSLGAQASISCRSSQSIVHSNGNTYLEWYLQKPGQSPKLLIYKVTNRFSGVPDRFSGSGSGTDFTLKISRVEAEDLGIYYCFQGSHVPYTFGGGTKLEIKR
notes: Mouse variable domains on human IgG4/kappa; also called Chimeric B8G11F2B7G5E8; chB8G11F2B7G5E8

kon [3]: 329000 M⁻¹ s⁻¹ and 364000 M⁻¹ s⁻¹
IC50 [4]: 2.46 nM
EC50 [5]: 0.603 nM
IC50 [6]: 0.172 nM
B2: chimeric antibody C2C1A1A1 (antibody, human IgG4 S228P, kappa, V domains shown)
VH: EVQLVESGGGLVQPGGSLKLSCAASGFTFSTYGMSWVRQTPDKRLELVATINSNGGSTSYPDSVKGRFTISRDNAKNTLYLQMSSLKSEDTAMFYCARFFRFRNAMDYWGQGTSVTVSS
VL: DIQMTQSPASLSASVGETVTITCRTSENIYSYLAWYQQKQGKSPQFLVYNAKTLAEGVPSRFSGSGSGTQFSLNINSLQSEDFGSYYCQHYYGPPTWTFGGGTKLEIKR
notes: Mouse variable domains on human IgG4/kappa; also called Chimeric C2C1A1A1; chC2C1A1A1

Source: patent US20230105029A1 (CHIA TAI TIANQING PHARMACEUTICAL GROUP, published 2023)
